Experimental findings from the nanobody polyreactivity screen of Harvey et al. (2022) are described below.

This data set can be described thus: yeast display, Sf9 membrane polyspecificity reagent, FACS + sequencing; frameworks hold sequencing errors. Summed up: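 After 36–48 hours of galactose induction, yeast (Saccharomyces cerevisiae BJ5465) displaying a synthetic nanobody library were stained at 4 °C for 1 hour with 10% biotinylated, detergent-solubilized Sf9 membrane reagent. Streptavidin microbeads enriched the stained cells before FACS sorting into low and high (top ~1%) gates on anti-HA and streptavidin fluorescence. Each clone's polyreactivity label reflects its gate of origin.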
On to “QVQLVESGGGLVQAGGSLRLSCAASGLTFRYNAMGWYRQAPGKERELVAAIRTSGGSTYYADSVKGRFTISRDNAKNTVYLQMNSLKPEDTAVYYCAARSKSYYGGYARGYWGQGTQVTVSS”, for which the “polyreactivity (PSR sort gate)” value is “high polyreactivity”.
For the sequence “QVQLVESGGGLVQAGGSLRLSCAASGLTFRYYAMGWYREAPGKEREFVAAITSSGGSTDYADSVKGRFTISRDNAKNSVYLQMNSVKPDDTGVFYCAAATNTQESVPMYYWGQGTQVTVSS”, the “polyreactivity (PSR sort gate)” value is reported as “low polyreactivity”.
To “QVQLVESGGGLVQAGGSLRLSCAASGLTFRYYAMGWYRQAPGKERELVAAITRRGSTYYADSVKGRFTISRDNAKNTVYLQMNSLKPEDTAVYYCATVTGFHSSPLRDLDYWGQGTQVTVSS” belongs “high polyreactivity”; to “QVQLVESGGGLVQAGGSLRLSCAASGLTFRYYAMGWYRQAPGKERELVAAITRRGSTYYADSVQGRFTISRDNAKNTVYLQMNSLKPEDTAVYYCAADDPYTPQYPDVTYDYWGQGTQVTVSS”, “high polyreactivity”.
As for “QVQLVESGGGLVQAGGSLRLSCAASGLTFRYYAMGWYRQAPGKEREWVASITSRGTSTYYADSVKGRFTISRDNAKNTVYLQMNSLKPEDTAVYYCAKPVGTVGYDYWGQGTQVTVSS”, the “polyreactivity (PSR sort gate)” value was “high polyreactivity”.
For “QVQLVESGGGLVQAGGSLRLSCAASGLTFRYYGMGWYRQAPGKERELVAAITSSGGSTRYADSVKGRFTISRDNAKNTVYLQMNSLKPEDTAVYYCAASTWYGYDYWGQGTQVTVSS”, the “polyreactivity (PSR sort gate)” value is on record as “high polyreactivity”.
“QVQLVESGGGLVQAGGSLRLSCAASGLTFSDYAMGWYRQAPGKEREFVAAITRNGASTRYADSVKGRFTISRDNAKNTVYLQMNRLKPEDTAVYYCSTDVGFGRKQRPHRPGYGYWGQGTQVTVSS”: the “polyreactivity (PSR sort gate)” value is reported as “low polyreactivity”.
Consider “QVQLVESGGGLVQAGGSLRLSCAASGLTFSINAMGWYIQAPGKERELVAAISRSGGRTYYADSVKGRFTISRDNAKNTVYLQMNSLKPEDTAVYYCAADKTQSHYDYWGQGTQVTVSS”, for which the “polyreactivity (PSR sort gate)” value was “high polyreactivity”.
Consider “QVQLVESGGGLVQAGGSLRLSCAASGLTFSIYAMGWYRQAPGKERELVAAISSTGSTNYADSVKGRFTISRDNAKNTVYLQMNSLKPEDTAVYYCAAELQPSPVGGIIQYGFDYWGQGTQVTVSS”, for which the “polyreactivity (PSR sort gate)” value is on record as “low polyreactivity”.
Take “QVQLVESGGGLVQAGGSLRLSCAASGLTFSNYAMGWYRQAPGKEREFVAAISASGGSTYYAHSVKGRFTISRDYAKNTVYLQMNRLTPEDTAVYYCAASTTRPVYPANDDYWGQGTQVTVSS”: the “polyreactivity (PSR sort gate)” value is listed as “low polyreactivity”.
For the sequence “QVQLVESGGGLVQAGGSLRLSCAASGLTFSPYAMGWYRQAPGKERELVAAISYSGGSTYYADSVKGRFTISRDNAKNTVYLQMISLKPEDTAVYYCAVVVPNLLRDGRRMYYWGQGTQVTVSS”, the “polyreactivity (PSR sort gate)” value is recorded as “high polyreactivity”.
To “QVQLVESGGGLVQAGGSLRLSCAASGLTFSRYAMGWYRQAPGKERELVAAISRRGGITYYADSVKGRFTISRDNAKNTVYLQMNSLKPEDTAVYYCNKDYGGELDYWGQGTQVSVSS” belongs “high polyreactivity”; to “QVQLVESGGGLVQAGGSLRLSCAASGLTFSTNAMGWYRQAPGKEREFVAAISFNGGSTYYADSVKGRFTISRDNAKNTVYLQMNSLKPEDTAVYYWNAVKYRYLEYNYWGQGTQVTVSS”, “high polyreactivity”.
Consider “QVQLVESGGGLVQAGGSLRLSCAASGLTFSTYDMGGYRQAPGKERELVAAITSGDGSTYYADSVKGRFTISRDNAKNTVYLQMNSLKPEDTAVYYCAADYLEWYGDVLFPYDYWGQGTQVTVSS”, for which the “polyreactivity (PSR sort gate)” value is “low polyreactivity”.
Under “QVQLVESGGGLVQAGGSLRLSCAASGLTFSTYDMGWYRQAPGKERELVAAITSGDGSTYYADSVKGRFTISRDTAKNTVYLQMNSLKPEDTAVYYCAADYLEWYGDVLFPYDYWGQGTQVTVSS” stands “low polyreactivity”; under “QVQLVESGGGLVQAGGSLRLSCAASGLTFSVYAMGWYRQAPGKERELVASISSGGTSTYYADSVKGRFTISRDNAKNTVYLQMNSLKPEDTAVYYCAAYSYYTGDQYSYDYWGQGTQVTVSS”, “low polyreactivity”.
As for “QVQLVESGGGLVQAGGSLRLSCAASGLTFSWNAMGWYRQAPGKERELVAAISSRGGSTYYADSVKGRFKISRDNAKNTVYLQMNSLKPEDTAVYYCNAHGRRFLGDYGYWGQGTQVTVSS”, the “polyreactivity (PSR sort gate)” value is recorded as “low polyreactivity”.
Consider “QVQLVESGGGLVQAGGSLRLSCAASGLTFSYYTMGWYRQAPGKERELVAAISKSAGSTYYADSVKGRFTISRDNAKNTVYLQMNSLKPEDTAVYYCAARFGYQYSYGYNYWGQGTQVTVSS”, for which the “polyreactivity (PSR sort gate)” value is given as “high polyreactivity”.
Take “QVQLVESGGGLVQAGGSLRLSCAASGLTFTHYALGWYRQAPGKERELVAAIAWRGGSTYYADSVKGRFTISRDNAKNTVYLQMNSLKPEDTAVYYCAVARSYRGEMDYWGQGTQVTVSS”: the “polyreactivity (PSR sort gate)” value is recorded as “low polyreactivity”.
“QVQLVESGGGLVQAGGSLRLSCAASGLTFTNYAMGWYRQAPGKERELVAAISRSGARTYYADSVKGRFTISRDNAKNTVYLQMNSLKPEDTAVYYCATRYLSRGVYNYDYWGQGTQVTVSS”: the “polyreactivity (PSR sort gate)” value is “high polyreactivity”.
For the sequence “QVQLVESGGGLVQAGGSLRLSCAASGLTFTPYTMGWYRQAPGKERELVAAITSSAARTYYADSVKGRFTISRDKAKNTVYFQMNSLKPEDTAVYYCNRYRLPSGRYEYWGQGTQVTVSS”, the “polyreactivity (PSR sort gate)” value is recorded as “high polyreactivity”.
On to “QVQLVESGGGLVQAGGSLRLSCAASGLTFTRYTMGWYRQAPGKERELVAAITSSGGSTYYADSVKGRFTISRDNAKNTVYLQMNSLKPEDTAVYYCAARYPGTRGDGYWGQGTQVTVSS”, for which the “polyreactivity (PSR sort gate)” value was “high polyreactivity”.
On to “QVQLVESGGGLVQAGGSLRLSCAASGLTFTSYAMGWYRQAPGKERELVAAITSGGSTYFADSVKGRFTISRDNAKNTVYLQMNSLKPEDTAVYYCNVTVYTRWYRSHSFWSTFRMDYWGQGTQVTVSS”, for which the “polyreactivity (PSR sort gate)” value is reported as “low polyreactivity”.
As for “QVQLVESGGGLVQAGGSLRLSCAASGLTFTTYAMGWYRPAPGKERELVASIRTGGSTNYADSVKGRFTISRDNAKNTVYLQMNSLKPEETAVYYCAAGRRIDKRYEYWGQGTQFTVSS”, the “polyreactivity (PSR sort gate)” value was “low polyreactivity”.
On to “QVQLVESGGGLVQAGGSLRLSCAASGLTFVFYAMGWYRQAPGKERELVAAISSSGGSTNYADSVKGRFTISRDNAKNTVYLQMNSLKPEDTAVYYCNARGRSGGGRYDYWGQGTQVTVSS”, for which the “polyreactivity (PSR sort gate)” value was “high polyreactivity”.
Turning to “QVQLVESGGGLVQAGGSLRLSCAASGLTFVFYAMGWYRQAPGNERELVAAISWSTGRTYYADSVKGRFTISRDNAKNTVYLQMNSLKPEDTAVYYCAASYLGRKYDYWGQGTQVTVSS”, the “polyreactivity (PSR sort gate)” value is on record as “high polyreactivity”.
In the case of “QVQLVESGGGLVQAGGSLRLSCAASGLTFVIYAMGWYRQAPGKERELVARITWSGGSTYYADSVKGRFTISRDNAKNTVYLQMNSLKPEETAVDYCAARRFYYYNAGYDSWGQGTQVTVSS”, the “polyreactivity (PSR sort gate)” value is “low polyreactivity”.
To “QVQLVESGGGLVQAGGSLRLSCAASGLTFVRYTMGWYRQAPGKVRELVAAITWSGGSTYYADSVKGRFTISRDNAKNTVYLQMNSLKPQDTAVYYCAARHRYWYGVTVDYWGQGTHVTVSS” belongs “high polyreactivity”; to “QVQLVESGGGLVQAGGSLRLSCAASGLTFVRYTMGWYRQPPGKVRELVAAITRGDGTNYADSVKGRFTISRDNAKNTVYLHLNCMKPEDTAVYLCADQEHFLWNYYAFDYWGQGTQVTVSS”, “low polyreactivity”.
In the case of “QVQLVESGGGLVQAGGSLRLSCAASGLTFVVYAMGWYRQAPGKERELVASITSSGGRTYYADSVKGRFTISRDNAKNTVYLQMNSLKPEDTAVYYCNKYTWWLGSVDYWGQGTQVTVSS”, the “polyreactivity (PSR sort gate)” value is reported as “high polyreactivity”.
